# Laboratory results as given in patent US10400022B2, “Neuropilin-1 specific binding peptide, fusion protein fused with same, and use thereof” (AJOU UNIVERSITY INDUSTRY-ACADEMIC COOPERATION FOUNDATION, priority 2015, dated 2019).
# Where no end group is shown, it is not given here.
# Assays:
# [1] = target: T1, NRP1 displayed on the human umbilical vein endothelial cell (HUVEC) surface (Homo sapiens, UniProt O14786); experiment: Confocal co-localization with NRP1 on HUVEC surface; assay type: cell-based; conditions: 1 μM, 30 minutes, 4° C., confocal microscopy
# T1 construct: endogenous in cells; host or cells: HUVEC
# Description: In an experiment for biological identification of the peptides that binds specifically to NRP1, human umbilical vein endothelial cells (HUVECs) overexpressing NRP1 were used.
# Specifically, 5×10^4 HUVEC cells were added to each well of a 24-well plate and incubated in 0.5 ml of EGM2 (Endothelial growth medium, Promocell) medium for 24 hours under the conditions of 5% CO2 and 37° C. […] Next, the medium was removed, and each well was washed with cold PBS. Then, the fusion protein wherein the selected peptide that binds specifically to NRP1 is fused to the antibody heavy-chain constant region was stained with FITC (green fluorescence)-labeled antibody (Sigma) that specifically recognizes Fc, and NRP1 was stained with primary antibody (Abcam) that recognizes NRP1 and with TRITC (red fluorescence)-labeled secondary antibody. The nucleus was stained (blue fluorescence) with DAPI and analyzed by confocal microscopy.
# VE-cadherin = experiment: Western blot of VE-cadherin in HUVEC; assay type: cell-based, human
# Description: Specifically, 5×10^5 HUVEC cells were seeded into each well of a 6-well plate and incubated for 24 hours, […] constant Fc region and the selected peptide that binds specifically to NRP1, for 10 minutes, followed by Western blot analysis. After SDS-PAGE, the gel was transferred to a PVDF membrane, and detection was performed using primary antibodies (SantaCruz) that recognize VE-cadherin and β-actin and using HRP-conjugated secondary antibody (SantaCruz), and analysis was performed using ImageQuant LAS4000 mini (GE Healthcare).
# [2] = tested on: human umbilical vein endothelial cells (HUVECs); experiment: Transwell assay of penetration of vascular endothelial cells (dextran-FITC); assay type: cell-based; conditions: 1 μM for 30 minutes (VEGF165A about 1.3 nM); dextran-FITC fluorescence in lower chamber
# Description: Specifically, 5×10^4 human umbilical vein endothelial cells (HUVECs) were seeded into the upper chamber of a transwell plate (Corning) and incubated in EGM2 for 3 days under the conditions of 37° C. and 5% CO2. […] Then, 50 μl of dextran-FITC (Sigma) was added to the upper chamber. After 30 minutes, based on the principle according to which the fluorescent substance would be observed when penetration into the vascular endothelial cells was increased, the medium was sampled from the lower chamber and the fluorescence thereof was measured.
# [3] = tested on: A431 cells expressing neuropilin-1; experiment: Immunohistochemistry of tumor tissue penetration in A431 xenograft; assay type: in vivo, Balb/c nude mice; conditions: 10 mg/kg intravenously, 15 hours after injection
# Description: At 15 hours after injection, the tumor was extracted from the mice and subjected to immunohistochemistry. The extracted tumor tissue was sectioned to a thickness of 20 μm by a frozen-section method, and the blood vessels were stained with the primary antibody CD31 antibody (BD Pharmingen) and TRITC (red fluorescence)-labeled secondary antibody that recognizes the same. In addition, to observe the distribution of the Fc-TPP1, Fc-TPP8 and Fc-TPP11 fusion proteins in the tissue, an FITC (green fluorescence)-labeled antibody that recognizes Fc was used.
# E-cadherin = experiment: Western blot of E-cadherin in FaDu cells; assay type: cell-based; conditions: human head and neck cancer FaDu cells
# Description: Specifically, 5×10^5 HUVEC cells were seeded into each well of a 6-well plate and incubated for 24 hours, and then treated with 0.1 μM of the fusion protein of the antibody heavy-chain constant Fc region and the selected peptide that binds specifically to NRP1, for 10 minutes, followed by Western blot analysis. After SDS-PAGE, the gel was transferred to a PVDF membrane, and detection was performed using primary antibodies (SantaCruz) that recognize VE-cadherin and β-actin and using HRP-conjugated secondary antibody (SantaCruz), and analysis was performed using ImageQuant LAS4000 mini (GE Healthcare).
# In order to examine whether the Fc-TPP1, Fc-TPP8 and Fc-TPP11 fusion proteins also have an enhanced ability to penetrate cancer cells, a change in E-cadherin in human head and neck cancer FaDu cells expressing NRP1 was analyzed by Western blot analysis under the same conditions as described above.
# [4] = target: T2, NRP1-b1b2 (273-586) protein (Homo sapiens, UniProt O14786); experiment: Competitive ELISA with VEGF165A / RPARPAR on NRP1-b1b2; assay type: binding
# T2 construct: made in house
# Description: In order to evaluate competitive binding of the TPP11 peptide, which binds specifically to NRP1 without binding to NRP2, and VEGF165A and a RPARPAR peptide, known to bind to the arginine-binding pocket of the NRP1-b1 domain, competitive ELISA was performed.
# Specifically, binding NRP1-b1b2 (273-586) protein to each well of a 96-well EIA/RIA plate or a 96-well EIA/RIA black plate (COSTAR Corning In., USA) at room temperature for […], is followed by washing three times with 0.1% PBST (0.1% Tween20, pH 7.4, 137 mM NaCl, 10 mM Phosphate, 2.7 mM KCl, SIGMA-ALDRICH co., USA) for 10 minutes. After binding with 5% skim milk (5% Skim milk, pH 7.4, 137 mM NaCl, 10 mM Phosphate, 2.7 mM KCl, SIGMA-ALDRICH co., USA) for 1 hour, each well was washed three times with 0.1% PBST (0.1% Tween20, pH 7.4, 137 mM NaCl, 10 mM Phosphate, 2.7 mM KCl, SIGMA-ALDRICH co., USA) for 10 minutes. […] Then, each mixture was incubated with AP-conjugated anti-human antibody (alkaline phosphatase-conjugated anti-human mAb, Sigma, USA), and then reacted with pNPP ([…], SIGMA-ALDRICH co., USA), and the absorbance at 405 nm was measured.
# [5] = tested on: VEGF165A-induced angiogenesis; experiment: In vivo matrigel plug assay; set-up: species or system Balb/c nude mice; conditions: 200 μg in matrigel plug with A431 cells, 8 days
# Description: Additionally, in order to examine anti-angiogenesis activity in vivo, a matrigel plug assay was performed. […] After 8 days, the matrigel plug was extracted, imaged (FIG. 15(B)), and then sectioned to a thickness of 20 μm by a frozen-section method, and subjected to immunohistochemistry. The blood vessels were stained with the primary antibody CD31 and a TRITC (red fluorescence)-labeled secondary antibody recognizing the same, and the density of the blood vessels was measured.
# biotinylated NRP1-b1b2 = target: T3, biotinylated NRP1-b1b2 (Homo sapiens, UniProt O14786); experiment: FACS of yeast surface-displayed clones binding biotinylated NRP1-b1b2; conditions: yeast surface display, compared with A22p
# T3 construct: biotin (chemical label on amines, Sulfo-NHS-LC-biotin); made in house
# Description: […] In addition, in the MACS and FACS processes, non-biotinylated NRP2-b1b2 was used as a competitive protein for biotinylated NRP1-b1b2 at a 10-fold higher concentration, and individual clones that bind to NRP1-b1b2 were selected.
# [6] = target: T2, NRP1-b1b2 (273-586) protein; experiment: ELISA binding to NRP1-b1b2; conditions: synthetic peptide not fused to Fc, 100 nM
# Description: The binding affinities of purified Fc-TPP1, Fc-TPP8 and Fc-TPP11 fusion proteins for the b1b2 domains of NRP1 and NRP2 were analyzed by ELISA (Enzyme Linked Immunosorbent Assay).
# To examine specificity for NRP1, the control VEGF165A and Fc, A22p, and each of the fusion proteins wherein the selected peptide that binds specifically to NRP1 is fused to the antibody heavy-chain constant Fc region, was biotinylated using a NHS-biotin kit (SIGMA-ALDRICH co., USA).
# 1 μg of each of NRP1-b1b2 (273-586) protein, NRP2-b1b2 (275-595) protein and the control group VEGFR2 (46-753) was immobilized in each well of a 96-well EIA/RIA plate (COSTAR Corning In., USA) at room temperature for 1 hour, and then washed three times with 0.1% PBST (0.1% Tween20, pH 7.4, 137 mM NaCl, 10 mM Phosphate, 2.7 mM KCl, SIGMA-ALDRICH co., USA) for 10 minutes. After binding with 5% skim milk (5% Skim milk, pH 7.4, 137 mM NaCl, 10 mM Phosphate, 2.7 mM KCl, SIGMA-ALDRICH co., USA) for 1 hour, each well was washed three times with 0.1% PBST (0.1% Tween20, pH 7.4, 137 mM NaCl, 10 mM Phosphate, 2.7 mM KCl, SIGMA-ALDRICH co., USA) for 10 minutes. […] Each well was bound with AP-conjugated anti-biotin antibody (alkaline phosphatase-conjugated anti-biotin mAb, Sigma, USA), and then reacted with pNPP ([…], SIGMA-ALDRICH co., USA), and the absorbance at 405 nm was measured.
substance,measurement,setting,value
"Fc-A22p: control Fc fusion of A22p peptide (HTPGNSNKWKHLQENKKGRPRR) that binds to both NRP1 and NRP2 (also: fused to Fc, not in chain)",binding to NRP1 on the HUVEC cell surface,[1],did bind to NRP1 on the HUVEC cell surface
same,change in VE-cadherin at 1 μM,VE-cadherin; 1 μM,VE-cadherin significantly decreased
same,change in VE-cadherin,VE-cadherin; 10 minutes,a decrease in VE-cadherin was observed
same,ability to penetrate vascular endothelial cells,[2],had an increased ability to penetrate vascular endothelial cells
same,tumor tissue accumulation and penetration,[3],selectively reached tumor tissue
same,change in E-cadherin,E-cadherin,induced a decrease in E-cadherin
same,binding to NRP1-b1b2 competitively with VEGF165A,[4]; VEGF165A 25 nM to 0.02 nM,overlapped a portion of NRP1 to which VEGF165A did bind
same,"VEGF165A-induced angiogenesis (density of blood vessels, CD31)",[5],inhibited VEGF165A-induced angiogenesis in living mice
"TPP1: NRP1-targeting peptide HTPGNSNQFVLTSTRPPR, SEQ ID NO: 1 (Synthetic construct (TPP1))",binding to 100 nM biotinylated NRP1-b1b2 (mean fluorescence intensity),biotinylated NRP1-b1b2,showed higher mean fluorescence intensities
"TPP8: NRP1-targeting peptide HTPGIATRTPR, SEQ ID NO: 2 (Synthetic construct (TPP8))",binding to 100 nM biotinylated NRP1-b1b2 (mean fluorescence intensity),biotinylated NRP1-b1b2,showed higher mean fluorescence intensities
"TPP11: NRP1-targeting peptide HTPGNSKPTRTPRR, SEQ ID NO: 3 (Synthetic construct (TPP11))",lower affinity than Fc-TPP11 for NRP1-b1b2 protein,[6],at least 100 fold
same,competitive binding of synthesized peptide with RPARPAR peptide and VEGF165A,[4],inhibited the binding of the RPARPAR peptide and VEGF165 to NRP1
same,binding to 100 nM biotinylated NRP1-b1b2 (mean fluorescence intensity),biotinylated NRP1-b1b2,showed higher mean fluorescence intensities
